# Patent publication US20130108641A1 (Sanofi, published 2013)
# Assays:
# [1] = target: T1, human GITR-Fc fusion protein (human, UniProt Q9Y5U5 26-162); assay: competition ELISA, GITRL coated, GITR 0.25 µg/mL pre-incubated with antibody
# T1 construct: extracellular domain; also called hGITR-Fc; recombinant human GITR-Fc; not shown: Fc part
# T1 sequence (looked up): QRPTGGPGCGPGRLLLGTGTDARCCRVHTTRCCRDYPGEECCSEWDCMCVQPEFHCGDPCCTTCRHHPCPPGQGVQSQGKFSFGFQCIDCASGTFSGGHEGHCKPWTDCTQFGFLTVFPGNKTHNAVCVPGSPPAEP
# Method: Ninety-six well plates were coated with GITR-Ligand proteins at 0.5 μg/well at 4° C. overnight. Wells were washed with washing buffer (PBS pH 7.4+0.05 Tween 20) and blocked with 200 μL of blocking buffer (PBS pH 7.4+0.05% Tween 20+1% BSA) for 1 hour at room temperature. […] Plates were washed four times with washing buffer and GITR-Ligand-bound recombinant human GITR-Fc was detected with the use of peroxidase-conjugated goat, anti-human IgG-Fc (Sigma), followed by incubation with the TMB substrate (Interchim ref UP664780).
# [2] = target: T2, human GITR expressed on cells (human, UniProt Q9Y5U5 26-241); assay: FACS on HEK293-Trex-hGITR cells, Michaelis binding plot
# T2 construct: whole, on cells; Used for HEK293 transfectants and for PHA-stimulated human PBMCs; also called hGITR; cell surface hGITR
# T2 sequence (looked up): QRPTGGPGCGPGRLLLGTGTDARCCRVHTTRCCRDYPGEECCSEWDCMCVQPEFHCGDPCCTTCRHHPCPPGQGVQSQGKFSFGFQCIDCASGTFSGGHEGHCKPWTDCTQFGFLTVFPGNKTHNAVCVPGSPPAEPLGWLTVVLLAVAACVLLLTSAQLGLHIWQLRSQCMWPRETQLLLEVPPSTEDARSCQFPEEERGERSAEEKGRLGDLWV
# Method: (§1) Wells were washed 3 times with 200 μl/well of PBS+1% BSA by centrifugation at 350 g for 5 minutes. Then, 100 μL of a 1:400 dilution of Alexa 647-conjugated, anti-human IgG-Fc (Invitrogen) was added to each well. Following incubation at 4° C. for 45 minutes in the dark, the plate was washed with PBS-1% BSA three times. Cells were resuspended in 150 μL of PBS-1% BSA and analyzed using GUAVA instrument.
# [3] = target: T3, human GITR protein (form not stated) (human, UniProt Q9Y5U5 26-161, limits assumed); assay: ELISA, GITR protein coated
# T3 construct: also called hGITR
# T3 sequence (looked up): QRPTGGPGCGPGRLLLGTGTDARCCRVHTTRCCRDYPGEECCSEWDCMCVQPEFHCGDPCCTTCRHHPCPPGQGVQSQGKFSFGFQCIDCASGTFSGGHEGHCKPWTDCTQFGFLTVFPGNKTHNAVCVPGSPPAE
# Method: Ninety-six well plates were coated with GITR protein at 0.25 μg/well at 4° C., overnight. Wells were washed with washing buffer (PBS pH 7.4+0.05 Tween 20) and blocked with 200 μL of blocking buffer (PBS pH 7.4+0.05% Tween 20+1% BSA) for 1 hour at room temperature. […] The plate was incubated at room temperature for 1 h and washed five times with PBS-T. Then, 100 μL of a 1:50 000 dilution of peroxidase-conjugated goat anti-human IgG-Fc (Sigma)) was added to each well. Following incubation at room temperature for 1 h in the dark, the plate was washed with PBS-T, five times. Antibody binding was visualized by adding 100 μL/well of TMB-H₂O₂ substrate buffer (Interchim) The reaction proceeded at room temperature for 10 min and was read using an ELISA plate reader at a wavelength of 450 nm.
# [4] = target: T2, human GITR expressed on cells; assay: FACS (Guava) on HEK293-Trex-hGITR cells, Alexa 647 anti-human IgG-Fc detection; fitted half-maximal concentration in the legend box, unit from the x axis 'mAb concentrations (µg/mL)'
# Method: as §1
# [5] = target: T1, human GITR-Fc fusion protein; assay: SPR (BIAcore 2000), mAb captured on anti-mouse Fc, antigen injected
# Method: (§2) The binding kinetics of several anti-GITR antibodies to recombinant human GITR (hGITR) and cynomolgus monkey GITR (cGITR) were determined by surface plasmon resonance assay using a BIAcore 2000 (BIAcore Inc., […].). Briefly, a CM5 BIAcore biosensor chip was docked into the instrument and activated with 250 μL of 1:1 NHS/EDC at room temperature. A rabbit anti-mouse Fc IgG1 mAb (BIAcore #BR-1005-14) (13.5 μg/mL in 0.05M acetate buffer, pH 5) was immobilized on the activated chips in Flow cell 1. The immobilization was carried out at a flow rate of 5 μL/min. The chip was then blocked by injection of 55 μL of ethanolamine-HCl, pH 8.5, followed by five washes with 50 mM NaOH, 1M NaCl. To measure the binding of anti-GITR mabs to the human GITR protein or cyno GITR protein, antibodies were used at 2 μg/mL in BIAcore running buffer (HBS-EP). Antigens (human GITR or cyno GITR) were injected from 3 to 1000 nM. Following completion of the injection phase, dissociation was monitored in a BIAcore running buffer at the same flow rate for 360 sec. The surface was regenerated between injections using 30 μL of 50 mM NaOH-1 M NaCl. Individual sensorgrams were analyzed using […].
# [6] = target: T4, cynomolgus monkey GITR-Fc (cynomolgus monkey); assay: as above
# T4 construct: extracellular domain; also called cGITR-FC; cGITR
# Method: as §2
# [7] = target: T1, human GITR-Fc fusion protein; assay: competition ELISA, GITRL coated, GITR-Fc 0.25 µg/mL pre-incubated with antibody
# Method: The ability of anti-GITR antibodies to inhibit the binding of human GITRL to hGITR was assessed using a competition ELISA. Ninety-six well plates were coated with GITR-Ligand protein at 0.5 μg/well at 4° C., overnight. Wells were washed with washing buffer (PBS pH 7.4+0.05 Tween 20) and blocked with 200 μL of blocking buffer (PBS pH 7.4+0.05% Tween 20+1% BSA) for 1 hour at room temperature. Wells were then washed two times with washing buffer and exposed to 100 μL of pre-incubated mixtures of GITR-Fc at 0.25 μg/mL plus anti-GITR antibody in 2-fold serial dilutions starting at 10 μg/ml up to 12 dilutions for 1 hour at room temperature with agitation. Plates were washed four times with washing buffer and GITR-Ligand-bound recombinant human GITR-Fc was detected with the use of peroxidase-conjugated goat anti-human IgG-Fc (Sigma), followed by incubation with the TMB substrate (Interchim)
# All antibodies generated using the methods disclosed herein were able to antagonize the binding of GITRL to GITR more potently than the prior art MAB689 antibody.
# [8] = target: T4, cynomolgus monkey GITR-Fc; assay: SPR; KD on cGITR-Fc over KD on hGITR-Fc
# Method: as §2
# [9] = target: T2, human GITR expressed on cells; assay: Meso Scale assay, Sulfo-conjugated antibody on coated HEK293-Trex-hGITR cells
# Method: The binding kinetics of anti-GITR antibodies to hGITR expressed on the surface of HEK293 cells were determined by Meso Scale assay. HEK293-Trex-hGITR cells (#2404) were coated at 25000 cells/well on a 96-well High Bind plate (MSD L15XB-3) for 2 hours at room temperature. Wells were washed 2 times with 150 μl/well of PBS and blocked with 150 μl/well of blocking solution for 30 min at room temperature. Following two washes with 150 μl/well of PBS, 25 μL/well of Sulfo-conjugated antibodies were added in 2-fold serial dilutions starting at 100 μg/ml up to 12 dilutions in assay diluent and incubated for 45 min at room temperature followed by two washes with PBS. The antibody binding was evaluated by adding 150 μl/well 1× Read buffer T without surfactant and read using the Mesoscale instrument.
binder,measurement,setting,value
"humanized anti-GITR antibody 2155 variant HC4-LC3 (antibody, V domains shown, also called LC3 and HC4) VH: EVQLVESGGGLIQPGGSLKLSCAASGFTISSYAMSWVRQAPGKGLEWVAIISTGGSTYYADSVKGRFTISRDNSKNTLYLQMNSLRAEDTAVYYCARVGGYYDSMDHWGQGTSVT VL: DIVLTQSPASLAVSPGQRATITCRASETVDNYGISFMNWFQQKPGQPPKLLIYAASNQGSGVPARFSGSGSGTDFTLTINPVEADDTANYYCQQSKEVPWTFGQGTKVE",IC50,[1],1.21 nM
same,Kd,[2],4.52 nM
same,EC50,[3],1.08 nM
same,EC50,[4],0.259 µg/mL
"humanized anti-GITR antibody 2155 variant HC2-LC1 (antibody, V domains shown, also called LC1 and HC2) VH: QVTLVESGGGLVKPGGSLTLSCGASGFTISSYAMSWVRQSPGKALEWVAIISTGGSTYYPDSVRGRFTISRDNAKNSLYLTMSSLDSVDTATYYCARVGGYYDSMDHWGQGTSVT VL: not shown",IC50,[1],0.93 nM
same,Kd,[2],4.68 nM
same,EC50,[3],1.34 nM
same,EC50,[4],0.278 µg/mL
"humanized anti-GITR antibody 2155 variant HC3b-LC2a (antibody, V domains shown, also called LC2a and HC3b) VH: QVTLKESGGGLVKPGGSLTLSCGASGFTISSYAMSWVRQSPGKALEWVAIISTGGSTYYPDKFRGRFTISRDNAKNSLYLTMSSLRSEDTATYYCARVGGYYDSMDHWGQGTSVT VL: DIVLTQSPASLSASVGDRATISCRASETVDNYGISFMNWFQQKPGQSPKLLIYAASNQGSGVPARFSGSGSGTDFSLTISPMQPDDTATYYCQQSKEVPWTFGGGTKLE",IC50,[1],1.15 nM
same,Kd,[2],4.96 nM
same,EC50,[3],1.24 nM
same,EC50,[4],0.238 µg/mL
"humanized anti-GITR antibody 2155 variant HC1-LC1 (antibody, V domains shown, also called LC1 and HC1) VH: QVTLVESGGGLVKPGGSLTLSCGASGFTISSYAMSWVRQSPGKALEWVAIISTGGSTYYPDSVRGRFTISRDNAKNSLYLTMSSLDSVDTAMYYCARVGGYYDSMDHWGQGTSVT VL: not shown",IC50,[1],1.08 nM
same,Kd,[2],4.03 nM
same,EC50,[3],0.91 nM
same,EC50,[4],0.206 µg/mL
"humanized anti-GITR antibody 2155 variant HC3a-LC2a (antibody, V domains shown, also called LC2a and HC3a) VH: QVTLVESGGGLVKPGGSLTLSCGASGFTISSYAMSWVRQSPGKALEWVAIISTGGSTYYPDKFRGRFTISRDNAKNSLYLTMSSLRSEDTATYYCARVGGYYDSMDHWGQGTSVT VL: DIVLTQSPASLSASVGDRATISCRASETVDNYGISFMNWFQQKPGQSPKLLIYAASNQGSGVPARFSGSGSGTDFSLTISPMQPDDTATYYCQQSKEVPWTFGGGTKLE",IC50,[1],1.26 nM
same,Kd,[2],5.51 nM
same,EC50,[3],2.17 nM
same,EC50,[4],0.333 µg/mL
"anti-GITR antibody clone 706 (antibody, V domains shown, Murine hybridoma antibody; also called 706-GITR2; 706 GITR-2) VH: EVQLQQSGTVLARPGASVKMSCEASGYSFTTYWMHWIKQRPGQGLEWIGAIYPGNSDTGYNQKFKGKAKLTAVTSASTAYMELSSLTNEDSAVYYCTRTSTYPHFDYWGQGTTLTVSS VL: DILLTQSPAILSVSPGERVSFSCRASQSIGTSIHWYQQRTNGSPRLLIKYASESISGIPSRFSGSGSGTDFTLNINSVESEDIADYYCQQTNNWPLTFGAGTKLELK",Kd,[5],5.95 nM
same,koff,[5],0.000221 s⁻¹
same,Kd,[6],31.8 nM
same,koff,[6],0.000662 s⁻¹
same,IC50,[7],2.82 nM
same,Ratio cKD/hKD,[8],5.3
same,Kd,[9],7.24 nM
"anti-GITR antibody clone 698 (antibody, V domains shown, Murine hybridoma antibody; also called 698-GITR2; 698 GITR-2) VH: EVQLQQSGTVLARPGASVKMSCEASGYSFTTYWMHWIKQRPGQGLEWIGAIYPGNSDTGYNQKFKGKAKLTAVTSATTAYMELSSLTDEDSAVYYCTRTSTYPHFDYWGQGTTLTVSS VL: DILLTQSPAILSVSPGERVSFSCRASQSIGTSIHWYQQRTNGSPRLLIKYASESISGIPSRFSGSGSGTDFTLNINSVESEDIADYYCQQSNNWPLTFGAGTKLELK",Kd,[5],6.67 nM
same,koff,[5],0.000224 s⁻¹
same,Kd,[6],36.8 nM
same,koff,[6],0.000707 s⁻¹
same,IC50,[7],1.9 nM
same,Ratio cKD/hKD,[8],5.5
same,Kd,[9],6.8 nM
"anti-GITR antibody clone 827 (antibody, V domains shown, Murine hybridoma antibody; also called 827-GITR2; 827 GITR-2) VH: EVQLQQSGTVLARPGASVKMSCETSGYSFTTYWIHWIKQRPGQGLEWIATIYPGNSDAGYNQKFRGKAKLTAVTSASTAYMELSSLTNEDSAVYYCTRSSTYPHFDYWGQGTTLTVSS VL: DILLTQSPAILSVSPGERVSFSCRASQSIGTSIHWYQQRTNDSPRLLIKYASESISGIPSRFSGSGSGTDFTLNINSVESEDIADYYCQQTNNWPLTFGAGTKLELK",Kd,[5],4.43 nM
same,koff,[5],0.000177 s⁻¹
same,Kd,[6],20.9 nM
same,koff,[6],0.000473 s⁻¹
same,IC50,[7],2.5 nM
same,Ratio cKD/hKD,[8],4.7
same,Kd,[9],4.44 nM
"chimeric 2155 antibody (antibody, V domains shown) VH: EVKLVESGGGLVKPGGSLKLSCGASGFTISSYAMSWVRQSPEKRLEWVAIISTGGSTYYPDSVRGRFTISRDNARNSLYLQMSSLRSEDTAMYYCARVGGYYDSMDHWGQGTSVTVSS VL: not shown",IC50,[1],1.13 nM
same,Kd,[2],5.55 nM
same,EC50,[3],0.97 nM
same,EC50,[4],0.337 µg/mL
